Measured values from the supplement of paper PMC7877785.
± gives the uncertainty stated by the source.

Experiment: self-splicing fitness, log relative to wild type (ln ratio); higher = more splicing; Tetrahymena group I intron in knt gene, E. coli kanamycin selection, DiMSum; sequences stand for … in CUCUCU…GGAGGGAAAAGUUAUCAGGCAUGCACCUGGUAGCUAGUCUUUAAACCAAUAGAUUGCAUCGGUUUAAAAGGCAAGACCGUCAAAUUGCGGGAAAGGGGUCAACAGCCGUUCAGUACCAAGUCUCAGGGGAAACUUUGAGAUGGCCUUGCAAAGGGUAUGGUAAUAAGCUGACGGACAUGGUCCUAACCACGCAGCCAAGUCCUAAGUCAACAGAUCUUCUGUUGAUAUGGAUGCAGUUCACAGACUAAAUGUCGGUCGGGGAAGAUGUAUUCUUCUCAUAAGAUAUAGUCGGACCUCUCCUUAAUGGGAGCUAGCGGAUGAAGUGAUGCAACACUGGAGCCGCUGGGAACUAAUUUGUAUGCGAAAGUAUAUUGAUUAGUUUUGGAGUACUCGUGGUCG
Summary of the method: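 Fitness was computed with DiMSum as the error-weighted combination of replicate fold changes, kanamycin versus none, each normalised to wild type. The library randomised all eight intron nucleotides of the P1ex region, with the intron placed in the knt kanamycin-resistance gene on pET-22b(+) in E. coli BL21(DE3). Six replicate transformations were grown overnight at 37°C or 30°C on LB agar with or without 25 μg/mL kanamycin, plus 100 μg/mL carbenicillin, 50 μM IPTG and 0.2% rhamnose. Pooled colonies were amplicon-sequenced on an Illumina HiSeq 2500.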

Row | Sequence | self-splicing fitness (ln) (30 °C) | self-splicing fitness (ln) (37 °C)
1 | GAUAAGCAAUAUUACGCUUG | -2.05 ± 0.1 | -0.952 ± 0.1
2 | AUCGAGCAAUAUUACGCUGG | -2.78 ± 0.21 | -2.96 ± 0.2
3 | CAAAAGCAAUAUUACGCUAA | -3.66 ± 0.25 | -2.1 ± 0.21
4 | GGUAAGCAAUAUUACGACAA | -0.393 ± 0.1 | -0.112 ± 0.16
5 | GUAUAGCAAUAUUACGAAGA | -3.64 ± 0.47 | -0.936 ± 0.23
6 | GAUAAGCAAUAUUACGUGAA | -2.2 ± 0.13 | -1.63 ± 0.15
7 | GCAUAGCAAUAUUACGCCCU | -1.78 ± 0.35 | -0.121 ± 0.33
8 | AUUUAGCAAUAUUACGCGAA | -3.01 ± 0.21 | -0.549 ± 0.16
9 | CCUUAGCAAUAUUACGUCCG | -1.73 ± 0.11 | -0.989 ± 0.17
10 | CAAGAGCAAUAUUACGAAUU | -3.25 ± 0.17 | -2.64 ± 0.32
11 | CUAUAGCAAUAUUACGACGG | 0.143 ± 0.13 | 0.155 ± 0.15
12 | CUGAAGCAAUAUUACGACCC | -2.58 ± 0.38 | 
13 | GGUAAGCAAUAUUACGGUCC | -1.57 ± 0.34 | 
14 | GCAGAGCAAUAUUACGAGCU | -4.1 ± 0.42 | -1.17 ± 0.26
15 | UCUAAGCAAUAUUACGGCGG | -0.251 ± 0.076 | -0.431 ± 0.096
16 | CACCAGCAAUAUUACGGCCU | -2.6 ± 0.16 | -1.93 ± 0.16
17 | GCCGAGCAAUAUUACGUCUA | -3.15 ± 0.29 | -0.742 ± 0.15
18 | UGCGAGCAAUAUUACGCGCU | -3.43 ± 0.36 | 
19 | GUUUAGCAAUAUUACGCGGU | -2.3 ± 0.45 | -1.95 ± 0.36
20 | GUAAAGCAAUAUUACGACAC | 0.603 ± 0.098 | 0.696 ± 0.12
21 | UAUCAGCAAUAUUACGUGCG | -0.0936 ± 0.087 | 0.327 ± 0.11
22 | CUCAAGCAAUAUUACGGUCG | -1.96 ± 0.098 | -1.19 ± 0.12
23 | CUGCAGCAAUAUUACGUUGC | -3.71 ± 0.26 | -2.18 ± 0.29
24 | UGUGAGCAAUAUUACGUAGU | -2.87 ± 0.24 | -3.06 ± 0.35

Row | Sequence | self-splicing fitness (ln) (30 °C) | self-splicing fitness (ln) (37 °C)
25 | CGAGAGCAAUAUUACGUCAC | -4.62 ± 0.39 | -2.45 ± 0.3
26 | CCAAAGCAAUAUUACGUCCC | -3.62 ± 0.35 | -1.59 ± 0.27
27 | UUCAAGCAAUAUUACGUUGU | -3.87 ± 0.19 | -1.34 ± 0.12
28 | GUAUAGCAAUAUUACGCAUC | -2.15 ± 0.17 | -0.982 ± 0.13
29 | AUAAAGCAAUAUUACGUCUC | -1.4 ± 0.093 | -0.541 ± 0.13
30 | AUCCAGCAAUAUUACGAUAC | -2.91 ± 0.23 | -0.914 ± 0.15
31 | UUUCAGCAAUAUUACGUGUG | -0.986 ± 0.067 | -0.142 ± 0.075
32 | CUCAAGCAAUAUUACGCUGG | -3.19 ± 0.15 | -2.62 ± 0.23
33 | UAGCAGCAAUAUUACGGCAA | -0.772 ± 0.16 | 0.622 ± 0.19
34 | GGGAAGCAAUAUUACGCCUG | -0.0824 ± 0.11 | -0.324 ± 0.16
35 | GGUCAGCAAUAUUACGCCAG | -3.3 ± 0.47 | -3.3 ± 0.4
36 | UGGCAGCAAUAUUACGGAUU | -3.95 ± 0.24 | -1.88 ± 0.2
37 | UCCGAGCAAUAUUACGAGGC | -3.1 ± 0.36 | -1.7 ± 0.39
38 | CGCUAGCAAUAUUACGCAGA | -3.28 ± 0.45 | -2.38 ± 0.36
39 | ACUUAGCAAUAUUACGGGGA | -1.38 ± 0.12 | -1.18 ± 0.15
40 | CCCUAGCAAUAUUACGGCUC | -4.27 ± 0.23 | -1.75 ± 0.14
41 | AAGGAGCAAUAUUACGUAGA | -3.27 ± 0.26 | -1.46 ± 0.18
42 | ACUGAGCAAUAUUACGGUUG | -2.76 ± 0.14 | -1.73 ± 0.15
43 | GGCUAGCAAUAUUACGGAAC | -1.09 ± 0.1 | -0.447 ± 0.13
44 | UAGGAGCAAUAUUACGGAUG | -3.62 ± 0.12 | -1.69 ± 0.11
45 | GAGCAGCAAUAUUACGUUAA | -3.53 ± 0.27 | -0.69 ± 0.13
46 | GUAGAGCAAUAUUACGGGAC | -1.46 ± 0.2 | -1.13 ± 0.15
47 | CCUAAGCAAUAUUACGACAA | -3.28 ± 0.22 | -2.54 ± 0.2
48 | CUUCAGCAAUAUUACGGCGU | -4.44 ± 0.24 | -1.8 ± 0.17
